Where a chain is given by its changes, count along the chain named.
Experiments:
[1] = target: T1, Latrophilin-3 ADHD-related variant D615N (Lphn3^D615N) (human)
T1 chain: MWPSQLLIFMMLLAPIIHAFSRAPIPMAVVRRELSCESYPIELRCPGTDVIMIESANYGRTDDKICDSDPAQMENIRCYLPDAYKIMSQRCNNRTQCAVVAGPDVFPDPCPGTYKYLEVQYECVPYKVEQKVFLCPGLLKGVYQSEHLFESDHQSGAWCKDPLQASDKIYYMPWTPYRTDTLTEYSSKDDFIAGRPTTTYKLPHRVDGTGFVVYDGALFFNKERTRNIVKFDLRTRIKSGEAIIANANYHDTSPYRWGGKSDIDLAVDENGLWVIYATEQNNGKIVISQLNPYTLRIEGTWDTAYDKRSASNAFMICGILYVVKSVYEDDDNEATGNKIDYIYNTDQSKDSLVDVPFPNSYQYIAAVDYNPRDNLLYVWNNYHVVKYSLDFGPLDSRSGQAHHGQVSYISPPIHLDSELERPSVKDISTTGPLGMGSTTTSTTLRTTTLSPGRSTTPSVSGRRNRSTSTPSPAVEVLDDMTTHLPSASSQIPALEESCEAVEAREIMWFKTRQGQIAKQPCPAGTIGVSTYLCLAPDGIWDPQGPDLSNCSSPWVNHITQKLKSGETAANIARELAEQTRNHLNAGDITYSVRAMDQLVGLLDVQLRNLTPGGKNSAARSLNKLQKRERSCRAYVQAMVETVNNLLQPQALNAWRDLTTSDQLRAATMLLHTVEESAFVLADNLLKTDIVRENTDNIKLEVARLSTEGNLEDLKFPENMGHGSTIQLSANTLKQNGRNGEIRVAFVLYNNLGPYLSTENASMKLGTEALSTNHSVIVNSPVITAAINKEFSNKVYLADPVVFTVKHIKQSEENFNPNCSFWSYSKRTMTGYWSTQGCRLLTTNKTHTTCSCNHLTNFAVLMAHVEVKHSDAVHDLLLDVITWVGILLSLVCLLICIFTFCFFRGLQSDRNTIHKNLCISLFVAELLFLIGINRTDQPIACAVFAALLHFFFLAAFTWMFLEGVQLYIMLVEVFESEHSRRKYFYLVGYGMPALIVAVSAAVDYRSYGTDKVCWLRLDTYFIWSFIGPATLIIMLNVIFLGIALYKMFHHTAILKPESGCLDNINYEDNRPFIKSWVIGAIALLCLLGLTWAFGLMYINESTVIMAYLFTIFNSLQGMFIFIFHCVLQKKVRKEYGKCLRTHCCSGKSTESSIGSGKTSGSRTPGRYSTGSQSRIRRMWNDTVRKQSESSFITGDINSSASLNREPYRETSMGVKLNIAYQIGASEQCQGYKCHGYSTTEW

[2] = target: T2, Latrophilin-3 ADHD-related variant T783M (Lphn3^T783M) (human)
T2 chain: T1 chain with N615D, T783M

B1: soluble FLRT3 extracellular domain fused to the constant fraction of human IgG (FLRT3^ECD-Fc) (Fc fusion)
chain: KSCPSVCRCDAGFIYCNDRFLTSIPTGIPEDATTLYLQNNQINNAGIPSDLKNLLKVERIYLYHNSLDEFPTNLPKYVKELHLQENNIRTITYDSLSKIPYLEELHLDDNSVSAVSIEEGAFRDSNYLRLLFLSRNHLSTIPWGLPRTIEELRLDDNRISTISSPSLQGLTSLKRLVLDGNLLNNHGLGDKVFFNLVNLTELSLVRNSLTAAPVNLPGTNLRKLYLQDNHINRVPPNAFSYLRQLYRLDMSNNNLSNLPQGIFDDLDNITQLILRNNPWYCGCKMKWVRDWLQSLPVKVNVRGLMCQAPEKVRGMAIKDLNAELFDCKDSGIVSTIQITTAIPNTVYPAQGQWPAPVTKQPDIKNPKLTKDHQTTGSPSRKTITITVKSVTSDTIHISWKLALPMTALRLSWLKLGHSPAFGSITETIVTGERSEYLVTALEPDSPYKVCMVPMETSNLYLFDETPVCIETETAPLRMYNPTTTLNREQEKEPYKNPNLP
modifications: HA/Flag epitopes left out; isoform assumed; signal peptide removed and GPS autoproteolysis expected
[1]
  Kd: 1.25 nM
[2]
  Kd: 1.22 nM

Reference: paper PMC9135631 (2022)
